From paper PMC6114900, “Molecular basis for CesT recognition of type III secretion effectors in enteropathogenic Escherichia coli” (PLoS Pathogens, 2018)

B1: His6-Tir^490-550 (domain or fragment)
chain: SGSGPVTGRLIGTPGQGIQSTYALLANSGGLRLGMGGLTSGGESAVSSVNAAPTPGPVRFV
notes: also called C-terminal Tir peptide; not shown: His6, N-terminal, kept
B2: His6-Tir^23-80 (domain or fragment)
chain: PSQTDGAARGGTGHLISSTGALGSRSLFSPLRNSMADSVDSRDIPGLPTNPSRLAAAT
notes: not shown: His6, N-terminal, kept

Experiments:
[1] = target: T1, CesT (no tag, co-expressed and co-purified with His6-Tir constructs) (enteropathogenic Escherichia coli (EPEC), UniProt P21244 1-156); experiment: SEC; settings: both partners purified
T1 construct: also called full-length CesT

[2] = target: T2, CesT^138 (no tag, co-expressed and co-purified with His6-Tir peptides) (enteropathogenic Escherichia coli (EPEC), UniProt P21244 2-138); experiment: pull-down; settings: partners not purified
T2 construct: also called CesT^2-138
T2 sequence (P21244 2-138): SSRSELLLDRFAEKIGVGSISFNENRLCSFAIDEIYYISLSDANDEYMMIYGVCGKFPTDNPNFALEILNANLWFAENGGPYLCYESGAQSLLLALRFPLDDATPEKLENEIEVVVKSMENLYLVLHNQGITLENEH

T1 sequence (P21244 whole entry): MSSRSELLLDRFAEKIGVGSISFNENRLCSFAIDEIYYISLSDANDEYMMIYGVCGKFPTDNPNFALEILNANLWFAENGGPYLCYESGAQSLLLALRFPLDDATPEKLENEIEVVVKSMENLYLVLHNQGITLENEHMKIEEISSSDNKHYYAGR

| Binder | binding result [1] | binding result [2] |
| --- | --- | --- |
| B1 | binds | – |
| GGTGHLISSTGALGSRSLFSPLRNSMADSVDSRDIPGLPTNPSRLAAAT (domain or fragment, not shown: His6, N-terminal, kept) [His6-Tir^32-80] | binds | binds |
| B2 | binds | – |
| GHLISSTGALGSRSLFSPLRNSMADSVDSRDIPGLPTNPSRLA (domain or fragment, not shown: His6, N-terminal, kept) [His6-Tir^35-77] | binds | – |
